Assay results from paper PMC12495166, “Enhanced solid tumor cell targeting by a neoepitope-encoding oncolytic measles virus combined with CAR therapy” (Molecular Therapy Oncology, 2025).

How the values were obtained:
[1] = target: T1, MICB-derived octapeptide VLQSQRTD (soluble) (human); assay: SPR
T1 peptide: VLQSQRTD

[2] = target: T2, MICB-derived octapeptide VLQSQRTD (soluble) (Homo sapiens); assay: SPR; antibodies (2 μg/mL) immobilised on an IgG-capture sensor chip; peptides as analyte, 0.5-100 nM octapeptide or 1-200 μM 13-aa peptide; single-cycle kinetics; HBS-EP pH 7.4, 30 μL/min; Sierra SPR-24 Pro; details: both partners purified
T2 construct: stalk octapeptide starting at position V302 and ending N-terminally of the annotated transmembrane domain; also called immunization peptide
T2 chain: VLQSQRTD

B1: monoclonal antibody clone 12F7 (antibody, V domains shown)
VH: QVQLQQSGAELVRPGTSVKVSCKASGYAFTNYLIEWIKQRPGQGLEWIGVINPRSGGTNYNEKFKGKATLTADKSSITVYMQLSSLTSDDSAIYFCVRSESYGDYGAWFAYWGQGTLVTVSA
VL: DIVLTQSPASLAVSLGQRATISCRASESVDSYGNSFMHWYQQKPGQPPKLLIDRASNRESGIPARFSGSGSRTDFTLTINPVEADDVATYYCQQSNEDPFTFGSGTKLEIK
notes: variable heavy domain of clone 12F7; constant region of the murine heavy chain; variable light domain of clone 12F7; constant region of the murine light chain; also called 12-F7-C12-E3; mAb 12F7; source: mouse hybridoma (ProteoGenix), purified by protein A/G
- koff [1]: 0.00536 s⁻¹
- Kd [2]: 3.85 nM
